{"source": "patent US20150087552A1", "key": {"[1]": {"target": "Kv2.1 \"wild-type\" base construct hKv2.1-m7-c3 (human Kv2.1, residues 1-858, mutated to confer AgTx2 (human) (UniProt Q14721))", "experiment": "cell-based or functional assay"}, "[2]": {"target": "Kv2.1 R300S (on the hKv2.1-m7-c3 base construct) (human) (UniProt Q14721)", "experiment": "cell-based or functional assay"}}, "data": [{"substance": "AgTx2 (Agitotoxin-2 / agitoxin 2, scorpion toxin) (from UniProt P46111 1-38) (peptide)", "values": [{"measurement": "mean inhibition of the maximal outward (alpha pore) current at +60 mV by 1 nM AgTx2, two-electrode voltage clamp, Xenopus oocytes", "setting": "[1]", "result": 66.5, "unit": "%"}, {"measurement": "mean inhibition of the maximal outward (alpha pore) current at +60 mV by 1 nM AgTx2, two-electrode voltage clamp, Xenopus oocytes", "setting": "[2]", "result": 67.8, "unit": "%"}]}]}
